Data from patent publication US20220135687A1 (NANJING LEGEND BIOTECH, published 2022).

Biological target: T1, His-tagged PD-L1 ECD protein (ACROBiosystems) (human, UniProt Q9NZQ7 19-238)
T1 construct: Bought protein; also called PD-L1-His; PD-L1/His; not shown: His tag
Experiment: SPR, supernatant IgG captured, PD-L1-His analyte

T1 sequence (Q9NZQ7 19-238): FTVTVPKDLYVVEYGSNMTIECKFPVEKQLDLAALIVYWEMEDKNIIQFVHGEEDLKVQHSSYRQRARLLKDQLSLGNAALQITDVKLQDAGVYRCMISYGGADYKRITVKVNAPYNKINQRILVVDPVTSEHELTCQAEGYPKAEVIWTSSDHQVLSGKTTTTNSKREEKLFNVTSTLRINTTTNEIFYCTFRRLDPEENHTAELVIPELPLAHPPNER

Row | Kd | koff | kon | Binder
1 | 0.76 nM | 0.0002 s⁻¹ | 260000 M⁻¹ s⁻¹ | 53C1_VH-VL.M1 (antibody, human IgG1, kappa, N297A, V domains shown, Chimeric mutant, VL K24R in the entry; human IgG1 effector-less Fc, kappa) VH: QVQLQQSGNELARPGASVRLSCKASGYIFTGYGITWVRQRPGQGLEWIGEIFPRRVNTYYSEKFKGRATLTADISSSTAYMELRSLTSEDSAVYFCARDYDPYFALDYWGQGTSVTVSS VL: DIVMTQSHKFMSTSVGDRVSITCRASQDVSTAVDWYQQKPGQSPKLLIYSASYRYTGVPDRFTGSGSGTAFTFTISGEQAEDLAVYYCQQHYSIPFTFGGGTKLEIKR
2 | 0.94 nM | 0.00018 s⁻¹ | 200000 M⁻¹ s⁻¹ | 53C1_VH.M2-VL.M1 (antibody, human IgG1, kappa, N297A, V domains shown, Chimeric mutant (VH N57A, VL K24R in the entries); human IgG1 effector-less Fc, kappa) VH: QVQLQQSGNELARPGASVRLSCKASGYIFTGYGITWVRQRPGQGLEWIGEIFPRRVATYYSEKFKGRATLTADISSSTAYMELRSLTSEDSAVYFCARDYDPYFALDYWGQGTSVTVSS VL: DIVMTQSHKFMSTSVGDRVSITCRASQDVSTAVDWYQQKPGQSPKLLIYSASYRYTGVPDRFTGSGSGTAFTFTISGEQAEDLAVYYCQQHYSIPFTFGGGTKLEIKR
3 | 0.53 nM | 0.00014 s⁻¹ | 260000 M⁻¹ s⁻¹ | 53C1_VH.M3-VL (antibody, human IgG1, kappa, N297A, V domains shown, Chimeric mutant, VH N57Q in the entry; human IgG1 effector-less Fc, kappa) VH: QVQLQQSGNELARPGASVRLSCKASGYIFTGYGITWVRQRPGQGLEWIGEIFPRRVQTYYSEKFKGRATLTADISSSTAYMELRSLTSEDSAVYFCARDYDPYFALDYWGQGTSVTVSS VL: DIVMTQSHKFMSTSVGDRVSITCKASQDVSTAVDWYQQKPGQSPKLLIYSASYRYTGVPDRFTGSGSGTAFTFTISGEQAEDLAVYYCQQHYSIPFTFGGGTKLEIKR
4 | 0.86 nM | 0.0002 s⁻¹ | 240000 M⁻¹ s⁻¹ | 53C1_VH.M1-VL.M1 (antibody, human IgG1, kappa, N297A, V domains shown, Chimeric mutant (VH N57S, VL K24R in the entries); human IgG1 effector-less Fc, kappa) VH: QVQLQQSGNELARPGASVRLSCKASGYIFTGYGITWVRQRPGQGLEWIGEIFPRRVSTYYSEKFKGRATLTADISSSTAYMELRSLTSEDSAVYFCARDYDPYFALDYWGQGTSVTVSS VL: DIVMTQSHKFMSTSVGDRVSITCRASQDVSTAVDWYQQKPGQSPKLLIYSASYRYTGVPDRFTGSGSGTAFTFTISGEQAEDLAVYYCQQHYSIPFTFGGGTKLEIKR
5 | 0.87 nM | 0.00021 s⁻¹ | 240000 M⁻¹ s⁻¹ | 53C1_VH.M1-VL (antibody, human IgG1, kappa, N297A, V domains shown, Chimeric mutant, VH N57S in the entry; human IgG1 effector-less Fc, kappa) VH: QVQLQQSGNELARPGASVRLSCKASGYIFTGYGITWVRQRPGQGLEWIGEIFPRRVSTYYSEKFKGRATLTADISSSTAYMELRSLTSEDSAVYFCARDYDPYFALDYWGQGTSVTVSS VL: DIVMTQSHKFMSTSVGDRVSITCKASQDVSTAVDWYQQKPGQSPKLLIYSASYRYTGVPDRFTGSGSGTAFTFTISGEQAEDLAVYYCQQHYSIPFTFGGGTKLEIKR
6 | 0.81 nM | 0.00016 s⁻¹ | 200000 M⁻¹ s⁻¹ | 53C1_VH.M2-VL (antibody, human IgG1, kappa, N297A, V domains shown, Chimeric mutant, VH N57A in the entry; human IgG1 effector-less Fc, kappa) VH: QVQLQQSGNELARPGASVRLSCKASGYIFTGYGITWVRQRPGQGLEWIGEIFPRRVATYYSEKFKGRATLTADISSSTAYMELRSLTSEDSAVYFCARDYDPYFALDYWGQGTSVTVSS VL: DIVMTQSHKFMSTSVGDRVSITCKASQDVSTAVDWYQQKPGQSPKLLIYSASYRYTGVPDRFTGSGSGTAFTFTISGEQAEDLAVYYCQQHYSIPFTFGGGTKLEIKR
7 | 0.56 nM | 0.00014 s⁻¹ | 260000 M⁻¹ s⁻¹ | 53C1_VH.M3-VL.M1 (antibody, human IgG1, kappa, N297A, V domains shown, Chimeric mutant (VH N57Q, VL K24R in the entries); human IgG1 effector-less Fc, kappa) VH: QVQLQQSGNELARPGASVRLSCKASGYIFTGYGITWVRQRPGQGLEWIGEIFPRRVQTYYSEKFKGRATLTADISSSTAYMELRSLTSEDSAVYFCARDYDPYFALDYWGQGTSVTVSS VL: DIVMTQSHKFMSTSVGDRVSITCRASQDVSTAVDWYQQKPGQSPKLLIYSASYRYTGVPDRFTGSGSGTAFTFTISGEQAEDLAVYYCQQHYSIPFTFGGGTKLEIKR
8 | 0.29 nM | 0.00015 s⁻¹ | 530000 M⁻¹ s⁻¹ | 29A8_VH-VL.M1 (antibody, human IgG1, kappa, N297A, V domains shown, human IgG1 effector-less Fc, kappa) VH: DVQLQGSGPGLVKPSQSLSLTCTVTGYSITSDFAWDWIRQFPGNKLEWMGHIRFSGTTSYNPSLKSRISITRDTSKNQFFLQLNSVTSEDTATYYCARSTLITKGFFDYWGQGTTLTVSS VL: DIVMTQSHKFMSTSVGGRVSITCRASQDVSPAVAWYQQKPGQSPKLLIYWASTRHTGVPDRFTGSGSGTDFTLTISSVQTEDLALYYCQQHYSTPWTFGGGTKLEIKR
